Assay: soluble on expression in E. coli; label from the status in PepcDB or PDB records

Sequence | soluble on expression in E. coli
MSLKVVFVSYEVFPFAKVGGLADVAGTLPKYLKKHGVDVTIVMPKHRIVEKNAEKFGYEIKKVAESLSVSHVKTDQKFDIYESVLPGSDVKTYFVANDYYFSAEDVYAGPDLGEQAIFFCAATLDLVKHLDLKPDIVHVNDWQTALIPVYLKTVYRDDPYFSRTATVLTIHNLGYQGVFDPKYLSFAGLPDYVYTIDGLEFYGQLNFLKGGIVFSDVINTVSPTYAEEIQTEEYGEKLDGVLRMRSKDLYGILNGIDYELYNPATDRYIYVNYDVNRLELKWENKVKLQEELGLPVNKETAVAGLISRLVPQKGLDLLVDVMDYLTLFDLQIVVLGTGDEQYENAFRKFQERYPDKVSANIKFDVELAQKIYAGADIFLMPSRYEPCGLGQMFSMRYGTIPVVRYTGGLADTVKEYDPQSMEGTGFGFKKYDSAHLLKAVSKALHFYYREKDHWRRIMTNAMNTDLSWDRSAKEYVDLYKKALAKVGREGHHHHHH | soluble
MGHHHHHHSHMVPGGKPILCPRRTTAQLGPRRNPAWSLQAGRLFSTQTAEDKEEPLHSIISSTESVQGSTSKHEFQAETKKLLDIVARSLYSEKEVFIRELISNASDALEKLRHKLVSDGQALPEMEIHLQTNAEKGTITIQDTGIGMTQEELVSNLGTIARSGSKAFLDALQNQAEASSKIIGQFGVGFYSAFMVADRVEVYSRSAAPGSLGYQWLSDGSGVFEIAEASGVRTGTKIIIHLKSDCKEFSSEARVRDVVTKYSNFVSFPLYLNGRRMNTLQAIWMMDPKDVREWQHEEFYRYVAQAHDKPRYTLHYKTDAPLNIRSIFYVPDMKPSMFDVSRELGSSVALYSRKVLIQTKATDILPKWLRFIRGVVDSEDIPLNLSRELLQESALIRKLRDVLQQRLIKFFIDQSKKDAEKYAKFFEDYGLFMREGIVTATEQEVKEDIAKLLRYESSALPSGQLTSLSEYASRMRAGTRNIYYLCAPNRHLAEHSPYYEAMKKKDTEVLFCFEQFDELTLLHLREFDKKKLISVETDIVVD | soluble
MAHHHHHHMSTEVSSGSNDGPSFHHHIQDAVHMIWNNQCSEAEEILFPYKEIHPRYALEYANKYLVQTLMNSTNESREILLELFKVADSLASAAKYSEPMFDFDVENDGDGTGMSMCLPSKAERKISKKSFNGRRKAAEKAGQSFVDNWKLECDVIYADALLMRSVCQLMMNSYFKGGVNLRRTWGLYHKLIQVVEADRTNQIPNELKMCVKYGTGAFYAFLALVPANLMRLLNVIGFISDKELGEQYLTEVFESNGVRSPFAALVLCTLYLFLPTGLGRVEETLAKAKRILDAMNQKYEHNTYFYGYSNFYHRKRGETAEALMAIQLAETNAERAGLVPILIRYLHADTLFMDLRFEEARDRYAALLDHLAKTKESFAYTGQVVLSLAACFVMLGDDAQAIQWLKKVGSMYNSRSKNDANSPKFASRVLANPRLLPLCGVYMLYINRDLAHMKVEQAERLLEELTRVTKGKDLSGPEPENMFTLFVGVIHKGCDRIDEAFGYMSKIFANEKRVPNDSMVLPYAYYEAGELEYRRGNYENAKTLFTKGQSLKGDGNETLMNRYNIALKQLKRTMEERKGA | not soluble
MKRHFRPSLIKTEAWEGYEFADKEIKITESTDCYGAVLWPSAMVLCHFLDSHRDQYNLLDKKIIELGAGTGLVTIVTSLLGAQVTSTDLPDVLANLRHNVNRNTRGRCRHEPQVTELIWGQQLEERFPRYTCQYDYILAADVVYGHPYLQELLETFIHLCSDHTVILWAMRFRLDPENRFVHTFQEHFHLEELYDLPSLSIKLYRAHKR | not soluble
MTIHIYNTLTRQKEEFTPLEENKVKMYVCGPTVYNYIHIGNARPPMVFDTVRRYLEYKGYDVQYVSNFTDVDDKLIKAANELGEDVPTIADRFVEAYFEDVTALGCKHATVHPRVTENMDIIIEFIQELVNKGYAYESEGDVYFRTKEFEGYGKLSHQPIADLRHGARIEVGEKKQDPLDFALWKAAKEGEIFWESPWGQGRPGWHIECSAMARKYLGDTIDIHAGGQDLAFPHHENEIAQSEALTGKTFARYWMHNGYININNEKMSKSLGNFILVHDIIKQYDPQLIRFFMLSVHYRHPINFSEELLQSTNNGLERIKTAYGNLKHRMESSTDLTDHNEKWLADLEKFQTAFEEAMNDDFNTANAITELYNVANHANQYLLEEHTSTVVIEAYVKQLETLFDILGLELAQEELLDEEIEALIQKRIEARKNRDFALSDQIRDDLKDRNIILEDTAQGTRWKRG | soluble
MGSDKIHHHHHHMNALPLVSVVVPNYNYKRYLNLRIQSILQQTYQNIELILLDDASTDGSEEVLSDYQDHAKVSHILLNEHNTGNPFKQWFKGMQLAKGKYIWIAEADDLCELTFLEKVVPLMEKYQQAAVCFAGSKYIDKDGNVLSYDMNKWKSAIPPYAVFNGKTYAEHNLYWRSYIANASSAIFRKSMVNAQNMEQCLQMRYSGDWLFWFYMAMQGDIIERYEVLNYFRQHNQKVTVKAENNGGGKSEDIEIVRIMEQHLTHLSRYKRCIRRGMLYNRIAKLSTTDRVKLQLWELLRQKLNGTRKDGRLERLNRIARLFCPFVLTMKRDRLTPSREIG | not soluble
QTLDIQRGATLFNRACIACHDTGGNIIQPGATLFTKDLERNGVDTEEEIYRQTYFGKGRMPGFGEKCTPRGQCTFGPRLQDEEIKLLAEFVKFQADQGWPTVSTD | soluble
MGSDKIHHHHHHMVDQSQLRQWGCKVIDIEKSALDNLYQYVDSAEFAQACELILNCSGKVIVMGMGKSGHIGNKISATLASTGTPAFFVHPGEASHGDLGVLSDNDIILAISNSGESSEILALMPVIQRKAIPVIAMTGKPESTMARLAKIHLCIEVPEEACPLGLAPTSSTTATLVMGDAMAIALLQAKGFTRDDFAMSHPGGALGRKLLLKVSNVMHCGDDLPLVKHDICITDALYEISKKGLGMTAIIDEQNKLVGIFTDGDLRRVIDAQVNLRTTPIADVMTRNCVTITENVLAAQALQVMDSRNINGLIVIDKENHPVGALNMLDMVKAGVI | not soluble
MAHHHHHHMKKHKVPCKKFYRQRAHCNPLSDSYIRYPINCSYVDWRVHYPHLAAHGSDAQAEPINSVEATKHITNTEVERPPDEDPPTLQLNTNKYPIDYNQGPPKCAPHAEVTILDIGCGYGGLLFELSKTFPNKLILGMEIRDKITNYVGEKIHSYRKNYPPQYKNISVVRTNAMKFLPNYIKKNQIEKLFFCFPDPHFKKQNWRRRTITIESLSLYYYLLKRDGLIYFITDVYTLFLWVRFCFSKYPGFRLLSPEECQGDICVRLIHHSSEESKRVSKNKQAMYFCVARKE | not soluble
MGKPVVAIVGRPNVGKSTIFNRIAGERISIVEDTPGVTRDRIYSSAEWLNYDFNLIDTGGIDIGDEPFLAQIRQQAEIAMDEADVIIFMVNGREGVTAADEEVAKILYRTKKPVVLAVNKLDNTEMRANIYDFYSLGFGEPYPISGTHGLGLGDLLDAVAEHFKNIPETKYNEEVIQFCLIGRPNVGKSSLVNAMLGEERVIVSNVAGTTRDAVDTSFTYNQQEFVIVDTAGMRKKGKVYETTEKYSVLRALKAIDRSEVVAVVLDGEEGIIEQDKRIAGYAHEAGKAVVIVVNKWDAVDKDESTMKEFEENIRDHFQFLDYAPILFMSALTKKRIHTLMPAIIKASENHSLRVQTNVLNDVIMDAVAMNPTPTHNGSRLKIYYATQVSVKPPSFVVFVNDPELMHFSYERFLENRIRDAFGFEGTPIKIFARARK | soluble
MTDIDAIIIGAGVIGLATARELSMHGLSVIILESETEFGSATSSRNSEVIHAGLYYPAGSLKARLCVEGRQRLYDFCESHGVAHRHCGKLIVATSDDETPLLVALGAKGKANGCDDLELIDQRHALSLEPALACSSALLSPSTGIIDSHGYMLALLGEAQDHGAALALNAPFERAEAIGDGFRVHVGGKEPVSLTCRLLVNSAGLVAPMVAAMIEGLPSVAIPQARFAKGSYFSLTGKSPFSRLIYPAPHTHGLGVHLTLDLAGQARFGPDVEWVDTIDYAVDPRRMEGFGDAIRRYWPGLPEHTLAPAYSGIRPKISGPDEPAMDFRIDGPETHGFPGLVNLFGIESPGLTASLAIAGEIAARLEALEHHHHHH | not soluble
IGADVDLATLSGLDGAALHFEQTIFILDNGTGQPTGGEWQGAVGSYFGGAPLHNDIASNQLSLLTYKQKWLDGQLDLHVGRTNGRRYFYIYNCETGVTCNDPILDASSGMLPPPFGAWGGYLKYQVNPRFYVHAGAFESNPVDYLKKRKGLDFSTDDASGTSFLVGIGSKPGDNTTQYELNA | not soluble
MAHHHHHHMESPRQEPLPQQPSELNTNAAAVLSTTTTESYVYTCRMCRHVLFMHHEILPHYPEPVGSGNKGFKYRGGGHASSQQQQGLHAAQEGGDVCTSYFLDPDISPWVAEESREVHQVSGGLDVMPDTIYCPNRKCNAKIGTQSWVGSQCSCGAWVTPAFKIHSRVVDKMPVAQ | not soluble

— the DeepSol protein solubility set
